This is an account of results in US20100255012A1 (Genmab, published 2010).

Series [1] concerns the molecule itself. Put plainly: gel filtration on Superdex 200 (eluted at about 70 kD); self-association of half-molecules. (In general: SEC sorts molecules by how far they enter the pores of the column.)
Description: Samples (100 μl) were applied to a Superdex 200 HR 10/30 column (Amersham Biosciences, Uppsala, Sweden), which was connected to a HPLC system (ÄKTA explorer) from Amersham Biosciences, Uppsala, Sweden. The column was first equilibrated in PBS. Fractions of 250 μl were collected, in which Bet v 1 specific IgG was measured using the antigen binding assay.
To test the antigen binding of the Bet v 1 specific antibodies, a sample of diluted antibody was incubated overnight at room temperature with 0.75 mg Protein-G sepharose (Amersham Biosciences, Uppsala, Sweden) in 750 μl PBS/AT (PBS supplemented with 0.3% BSA, 0.1% Tween-20, 0.05% NaN3) together with 50 μl diluted ¹²⁵I-labelled Bet v 1 or ¹²⁵I-labelled Fel d 1. […] After washing the Sepharose suspension with PBS-T (PBS supplemented with 0.1% Tween-20), the bound radioactivity was measured. The results were expressed as the amount of radioactivity relative to the amount added.
Another series deals with T1, human C1q (human, UniProt P02745 23-245; P02746 28-253; P02747 29-245).
T1 construct: Bought human C1q; also called first component of the classical complement cascade
Description: ELISA, antibody coated, bound C1q detected with rabbit anti-human C1q. The method, then:
In short, microtiter ELISA plates (Greiner, Germany) were coated overnight at RT with the test antibodies serially diluted from 10 μg/ml to 0.06 μg/ml in PBS. Plates were emptied and wells were blocked with 200 μl ELISA-diluent per well (0.1 M NaPO₄, 0.1 M NaCl, 0.1% gelatin and 0.05% Tween-20), at RT for 30 minutes. […] After washing the plates (3×) with PBST, wells were incubated with HRP-conjugated swine anti-rabbit IgG-Fc (DAKO, P0300, lot #069) diluted in ELISA diluent (1:2500, 100 μl/well, RT, 1 hour). Thereafter, plates were washed thrice and assays were developed with freshly prepared 1 mg/ml ABTS solution (ABTS: 2,2′-azino-bis[3-ethylbenzthiazoline-6-sulfonic acid]); 2 tablets of 5 mg in 10 ml ABTS buffer, Boehringer Mannheim, Ingelheim, Germany) at RT in the dark for 30 minutes. Absorbance was measured at 405 nm in an ELISA plate reader (Biotek Instruments Inc., Winooski, USA).
A general note: ELISA stands for enzyme-linked immunosorbent assay.

T1 sequence (P02745 23-245 limits assumed, chain 1 of 3): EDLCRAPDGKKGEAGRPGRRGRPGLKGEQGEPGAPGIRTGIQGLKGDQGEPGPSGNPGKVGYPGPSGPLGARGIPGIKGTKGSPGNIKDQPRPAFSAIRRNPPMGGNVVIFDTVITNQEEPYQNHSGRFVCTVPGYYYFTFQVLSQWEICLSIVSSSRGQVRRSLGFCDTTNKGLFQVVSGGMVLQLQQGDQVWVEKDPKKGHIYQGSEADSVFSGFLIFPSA
T1 sequence (P02746 28-253 limits assumed, chain 2 of 3): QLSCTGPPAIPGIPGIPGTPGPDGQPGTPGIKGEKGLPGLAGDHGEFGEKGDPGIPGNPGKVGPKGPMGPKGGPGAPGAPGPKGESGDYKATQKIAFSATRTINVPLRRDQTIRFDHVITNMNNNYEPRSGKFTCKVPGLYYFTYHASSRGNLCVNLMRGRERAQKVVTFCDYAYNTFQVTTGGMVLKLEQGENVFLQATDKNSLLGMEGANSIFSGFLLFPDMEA
T1 sequence (P02747 29-245 limits assumed, chain 3 of 3): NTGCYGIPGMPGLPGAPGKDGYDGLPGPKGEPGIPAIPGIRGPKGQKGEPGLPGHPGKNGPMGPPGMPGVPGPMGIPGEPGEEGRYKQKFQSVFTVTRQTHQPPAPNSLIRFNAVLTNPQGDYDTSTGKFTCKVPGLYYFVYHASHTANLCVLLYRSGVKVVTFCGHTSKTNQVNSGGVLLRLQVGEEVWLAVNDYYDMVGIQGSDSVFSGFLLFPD

B1: Betv1-HG (antibody, V domains shown)
VH: EVQLQQSGAELVKPGASVKLSCTASGFNIKDTYIHWVKQRPEQGLEWVGRIDPATGNTRYDPKFQGKATITADTSSNTAYLQLSSLTSEDTAVYYCASFRPGYALDYWGQGTSVTVSS
VL: DIVMTQSHKFMSTSVGDRVSFTCKASQDVFTAVAWYQQKPGQSPKLLIYWASTRRTGVPDRFTGSGSGTDYTLTISSVQAEDLALYYCQQHFSTPPTFGGGTKLEIKR
notes: Half-molecule of one heavy and one light chain; also called anti-Betv1-HG; hingeless IgG4 anti-Bet v 1
B1: the binding result in series [1] is “no binding”.

B2: 7D8-HG (antibody)
heavy: EVQLVESGGGLVQPDRSLRLSCAASGFTFHDYAMHWVRQAPGKGLEWVSTISWNSGTIGYADSVKGRFTISRDNAKNSLYLQMNSLRAEDTALYYCAKDIQYGNYYYGMDVWGQGTTVTVSSASTKGPSVFPLAPCSRSTSESTAALGCLVKDYFPEPVTVSWNSGALTSGVHTFPAVLQSSGLYSLSSVVTVPSSSLGTKTYTCNVDHKPSNTKVDKRVAPEFLGGPSVFLFPPKPKDTLMISRTPEVTCVVVDVSQEDPEVQFNWYVDGVEVHNAKTKPREEQFNSTYRVVSVLTVLHQDWLNGKEYKCKVSNKGLPSSIEKTISKAKGQPREPQVYTLPPSQEEMTKNQVSLTCLVKGFYPSDIAVEWESNGQPENNYKTTPPVLDSDGSFFLYSRLTVDKSRWQEGNVFSCSVMHEALHNHYTQKSLSLSLGK
light: not shown
notes: Half-molecule of one heavy and one light chain; also called HuMab 7D8-HG; hingeless IgG4 anti-CD20
For the molecule B2, the binding result with human C1q was “no binding”.
